According to US20220144922A1 (Adimab, published 2022):

Key:
[1] = target: T1, postfusion RSV F ectodomain (F ΔFP), subtype A (respiratory syncytial virus subtype A, UniProt P03420 26-109; P03420 147-524); assay: BLI, IgG on sensor
T1 construct: extracellular domain; also called Postfusion subtype A

[2] = target: T2, prefusion-stabilized RSV F ectodomain (DS-Cav1), subtype B (respiratory syncytial virus subtype B); assay: BLI, IgG on sensor
T2 construct: extracellular domain; also called Prefusion subtype B

[3] = target: T3, postfusion RSV F ectodomain, subtype B (respiratory syncytial virus subtype B); assay: BLI, IgG on sensor
T3 construct: extracellular domain; also called Postfusion subtype B

[4] = target: RSV F protein of subtype B strain 18537, on virus (respiratory syncytial virus subtype B …, UniProt P13843 26-574); assay: cell-based or functional assay
[5] = target: T4, RSV F protein of subtype A strain A2, on virus (respiratory syncytial virus subtype A …, UniProt P03420 26-574); assay: cell-based or functional assay
[6] = target: HMPV F protein (NL/1/00, A1 sublineage), on virus (human metapneumovirus); assay: cell-based or functional assay
[7] = target: T4, RSV F protein of subtype A strain A2, …; assay: cell-based or functional assay; remark: listed apart in the source

| Binder | Kd [1] [nM] | Kd [2] [nM] | Kd [3] [nM] | Neut IC50 (ug/ml) subtype B [4] [µg/mL] | Neut IC50 (ug/ml) subtype A [5] [µg/mL] | HMPV-A1 IC50 [6] [µg/mL] | RSV-A2 IC50 [7] [µg/mL] |
| --- | --- | --- | --- | --- | --- | --- | --- |
| ADI-15600 (antibody, V domains shown, IgG; also called Antibody Number 166) VH: EVQLVESGGGLIQPGGSLRLSCAVSGFSVSSNYISWVRQPPGKGLEWVSVSYSSGVTDYADSVKGRFTTSRDNSKNTLYLQMNSLRGEDTAVYYCARELVPNFYESHGYFSVWGQGTLVTVSS VL: DIVMTQSPGTLSLSPGERATLSCRASQRVDSSYLAWYQQKPGQAPRLLIYGGSSRATGIPDRFSGSGSGTDFTLTISRLEPEDFALYYCQQYGFSQTFGQGTKVEIK | 0.162 | 1.42 | 0.148 | 0.958 | 1.31 |  |  |
| ADI-15611 (antibody, V domains shown, IgG) VH: QVQLVESGAEVKKPGSSVKVSCKASGGTFGRDSISWVRQAPGQGLEWMGGINPIFHTSHYAQKFQGRVTITADESTSTAYMELGNLRSEDTAMYYCARVPPPRGHCESTSCLWGTYFAFWGQGTLVTVSS VL: ETTLTQSPATLSLSPGERATLSCRASQRVRSYLAWYQQKPGQAPRLLIYDASIRATGIPARFSGSGSGADFTLTISSLEPEDFAVYYCQLRDYWPPTWTFGQGTKVEIK | 0.626 | 4.34 | 0.609 | 0.432 | 0.15 |  |  |
| ADI-15601 (antibody, V domains shown, IgG) VH: EVQLLETGGGLVKPGGSLRLSCEATGFTFSDFAMSWVRQAPGKGLEWVSLIKSSDYPYYADSVRGRFTISRDNSKNTLYLRMDNLRADDTAVYYCAKDADFWSGEAYNGGYNFDSWGQGTLVTVSS VL: EIVLTQSPATLSVSPGERATLSCRASQSIGTNLAWYQQKPGQAPRLLIFGASTRATGIPARFTGSGSGTEFTLTIGSLQSEDFAVYYCQQYNQWPPITFGGGTKVEIK | 0.207 | 0.329 | 0.193 | 0.084 | 0.046 |  |  |
| ADI-15599 (antibody, V domains shown, IgG; also called Antibody Number 165) VH: EVQLLESGGGLVQPGRSLRLSCSGSGFTFGDYALSWVRQAPGKGLEWVGFIRSKAYGGTTEYAASVKGRFTISRDDSKSIAYLQMNSLKTEDTAVYYCTMAVVVPGATDAFDIWGQGTMVTVSS VL: NFMLTQPHSVSESPGKTVTISCTRSSGSIASDYVQWFQQRPGSSPATVIYQDNQRPSGVPDRFSGSIDTSSNSASLTISGLKTEDEADYYCHSYDSSNPWVFGGGTKLTVL | 1.23 | 0.246 | 0.652 | 0.378 | 0.11 |  |  |
| ADI-15605 (antibody, V domains shown, IgG) VH: QVQLVQSGPEVKKPGESLKISCKGSGYTFTTYWIGWVRQRPGKGLEWMGIIHPGDSDTRYSPSLQGQVTISVDKSINTAYLQWRSLKASDTGMYYCARFEYGDFGNDFWGQGTLVTVSS VL: NFMLTQPHSVSESPGKTVTISCSRSSGSIANNYVQWYQQRPGSSPTTVIYEDNQRPSGVPDRFSGSIDSSSNSASLTISGLKTEDEADYYCQSYDSSNHRVFGGGTKLTVL | 0.163 | 3.49 | 0.171 | > 10 | > 10 |  |  |
| ADI-15647 (antibody, V domains shown) VH: QVQLVQSGAEVKKPGSSVRVSCEASGGTFSTYAISWVRQAPGLGLEWMGGIHPISGTANYAQSFQDRLTITVDKSTSTAYMDLSSLRSEDTAIYYCARVGLGRTWIYDTMGYLDYWGQGTLVTVSS VL: EIVLTQSPATLSLSPGERVTLSCRASQSVNDYLAWYQQKPGQAPRLLIYDASNRATGIPARFSGSGSGTDFTLTISSLEPEDFAVYYCQHRTNWPSLTFGGGTKVEIK |  |  |  | > 10 | > 10 | 20.3 | > 25 |
| ADI-15665 (antibody, V domains shown) VH: QVQLVQSGPEVKRPGSSVKVSCKASGDTFNNYAISWVRQAPGQGLEWMGGIHPTTATPNYAQKFQGRVVISADKSTSTAYLDLSRLRSEDTAMYYCARVGVGRTWVYDIMGYLDYWGQGTLVTVSS VL: EIVLTQSPATLSLSPGERATLSCRASQSVSDYLAWYQQRPGQAPRLLIYDASTRATGIPDRFSGGGSGTDFTLTISSLEPEDFAVYYCQHRNNWPSLTFGGGTKVEIK |  |  |  | 6.25 | 12.7 | 13.5 | 12.7 |
| ADI-15657 (antibody, V domains shown) VH: QVQLVQSGTEVKKPGSSVKVSCKASGGTFSSYAISWVRQAPGQGLEWMGGIHPTSGPANYAQKFQDRVTITVDKSTSTVYMDLSSLRSEDTAVYYCARVGVGRTWIYDTMGYLDFWGQGTLVTVSS VL: EIVMTQSPATLSLSPGERATLSCRASQSVSDYLAWYQQKPGQAPRLLIYDASNRATGIPARFSGSGSGTDFTLTITSLEPEDFAVYYCQHRSDWPSLTFGGGTKLEIK |  |  |  | > 10 | > 10 | 11.9 | > 25 |
| ADI-15614 (antibody, V domains shown, IgG) VH: EVQLLESGGGLVKPGGSLRLSCAASGFTISGYNMFWVRQPPGKGLEWVSSITAGSSYLNYADSVKGRFIVSRDNAKNSLYLQMNSLRAEDTAVYFCARAPLLPAMMDLWGQGTTVTVSS VL: QSVLTQPPSVSGAPGQRVTISCTGSSSNIGAGYDVHWYQQLPGTAPKLLIYTNNNRPSGVPDRFSGSKSGTSASLAITGLQAEDEADYYCQSYDRSLNGYVFGTGTKLTVL |  | 0.466 |  | 0.059 | 0.027 | 0.22 | 0.03 |
| ADI-15623 (antibody, V domains shown, IgG; also called Antibody Number 188) VH: EVQLLESGGGLVKPGGSLRLSCAASGFTIGGYNMFWVRQPPGKGLEWVSSITAGSSYLNYADSVKGRFIVSRDNAKNSLYLQMNSLRAEDTAVYFCARAPLLPAMMDLWGQGTTVTVSS VL: QSVVTQPPSVSGAPGQRVTISCTGSSSNIGAGYDVHWYQQLPGTAPKLLIYTNNNRPSGVPDRFSGSKSGTSASLAITGLQAEDEADYYCQSYDRSLNGYVFGTGTQLTVL |  | 0.435 |  | 0.108 | 0.054 | 0.37 | 0.05 |
